Experimental data: the supplement of paper PMC10065799, “High-throughput profiling of sequence recognition by tyrosine kinases and SH2 domains using bacterial peptide display” (eLife, 2023)

How the values were obtained:
[1] = biological target: c-Src SH2; experiment: SH2 binding enrichment of the phosphorylated peptide, bacterial display (enrichment ratio); higher = better substrate or ligand; peptides without Tyr show the background
[2] = biological target: Grb2 SH2 (UniProt P62993); experiment: as above
[3] = biological target: SHP2-C SH2; experiment: as above
[4] = tested on: AncSZ; experiment: phosphorylation enrichment, bacterial display (enrichment ratio); higher = better substrate or ligand; peptides without Tyr show the background
[5] = biological target: FGFR1 (UniProt P11362); experiment: as above
[6] = tested on: c-Src; experiment: as above
[7] = biological target: Fes (UniProt P07332); experiment: as above
[8] = biological target: Jak2 (UniProt O60674); experiment: as above
[9] = biological target: EPHB2 (UniProt P29323); experiment: as above
[10] = tested on: c-Abl (mouse); experiment: as above
[11] = biological target: Fyn (UniProt P06241); experiment: as above
[12] = tested on: Fer (mouse); experiment: as above
[13] = biological target: Hck (UniProt P08631); experiment: as above
[14] = biological target: MERTK (UniProt Q12866); experiment: as above
[15] = biological target: FGFR3 (UniProt P22607); experiment: as above
[16] = biological target: EPHB1 (UniProt P54762); experiment: as above
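Wherever SH2 binding enrichment of the phosphorylated peptide, bacterial display is given: peptide library displayed on the E. coli surface as eCPX fusions, selected cells deep-sequenced, score is each peptide's frequency after selection divided by its frequency in the input.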
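Wherever phosphorylation enrichment, bacterial display is given: 11-residue human phosphosite peptides and single-mutation variants displayed on the E. coli surface, counted by deep sequencing, each peptide's frequency after selection divided by its frequency in the unselected input library; frequency after pTyr selection over input frequency; kinase dosed for 20-30% of maximal phosphorylation in three min.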

Jak2, sequence (O60674 whole entry, looked up): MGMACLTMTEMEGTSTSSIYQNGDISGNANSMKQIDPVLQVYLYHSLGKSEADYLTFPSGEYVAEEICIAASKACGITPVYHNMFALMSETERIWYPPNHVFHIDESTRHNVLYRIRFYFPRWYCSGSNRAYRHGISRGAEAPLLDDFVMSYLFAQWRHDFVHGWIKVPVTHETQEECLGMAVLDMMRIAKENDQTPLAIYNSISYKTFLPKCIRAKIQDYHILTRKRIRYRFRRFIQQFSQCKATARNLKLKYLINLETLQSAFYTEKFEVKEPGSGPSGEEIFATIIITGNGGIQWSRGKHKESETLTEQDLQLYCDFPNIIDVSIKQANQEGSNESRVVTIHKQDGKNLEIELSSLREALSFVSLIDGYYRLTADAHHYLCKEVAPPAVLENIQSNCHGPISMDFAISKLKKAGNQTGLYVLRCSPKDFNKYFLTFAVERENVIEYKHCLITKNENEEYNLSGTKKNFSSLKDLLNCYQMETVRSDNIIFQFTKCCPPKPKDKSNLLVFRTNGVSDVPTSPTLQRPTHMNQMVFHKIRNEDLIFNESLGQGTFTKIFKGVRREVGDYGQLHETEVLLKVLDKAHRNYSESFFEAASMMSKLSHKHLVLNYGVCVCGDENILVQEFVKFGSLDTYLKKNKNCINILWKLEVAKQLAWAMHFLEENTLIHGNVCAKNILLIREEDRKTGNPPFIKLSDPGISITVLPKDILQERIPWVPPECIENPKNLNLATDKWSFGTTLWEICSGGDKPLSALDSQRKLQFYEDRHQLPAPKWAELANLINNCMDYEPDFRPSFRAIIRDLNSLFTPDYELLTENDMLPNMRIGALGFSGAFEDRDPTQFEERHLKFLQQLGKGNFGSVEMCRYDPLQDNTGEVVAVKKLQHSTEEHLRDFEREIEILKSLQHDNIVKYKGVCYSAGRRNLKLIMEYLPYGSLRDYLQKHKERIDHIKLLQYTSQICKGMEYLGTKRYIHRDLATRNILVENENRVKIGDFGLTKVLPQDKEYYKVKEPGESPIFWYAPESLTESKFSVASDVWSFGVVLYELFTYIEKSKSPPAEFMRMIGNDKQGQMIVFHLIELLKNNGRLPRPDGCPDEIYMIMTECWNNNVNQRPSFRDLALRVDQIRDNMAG
FGFR1, sequence (P11362 whole entry, looked up): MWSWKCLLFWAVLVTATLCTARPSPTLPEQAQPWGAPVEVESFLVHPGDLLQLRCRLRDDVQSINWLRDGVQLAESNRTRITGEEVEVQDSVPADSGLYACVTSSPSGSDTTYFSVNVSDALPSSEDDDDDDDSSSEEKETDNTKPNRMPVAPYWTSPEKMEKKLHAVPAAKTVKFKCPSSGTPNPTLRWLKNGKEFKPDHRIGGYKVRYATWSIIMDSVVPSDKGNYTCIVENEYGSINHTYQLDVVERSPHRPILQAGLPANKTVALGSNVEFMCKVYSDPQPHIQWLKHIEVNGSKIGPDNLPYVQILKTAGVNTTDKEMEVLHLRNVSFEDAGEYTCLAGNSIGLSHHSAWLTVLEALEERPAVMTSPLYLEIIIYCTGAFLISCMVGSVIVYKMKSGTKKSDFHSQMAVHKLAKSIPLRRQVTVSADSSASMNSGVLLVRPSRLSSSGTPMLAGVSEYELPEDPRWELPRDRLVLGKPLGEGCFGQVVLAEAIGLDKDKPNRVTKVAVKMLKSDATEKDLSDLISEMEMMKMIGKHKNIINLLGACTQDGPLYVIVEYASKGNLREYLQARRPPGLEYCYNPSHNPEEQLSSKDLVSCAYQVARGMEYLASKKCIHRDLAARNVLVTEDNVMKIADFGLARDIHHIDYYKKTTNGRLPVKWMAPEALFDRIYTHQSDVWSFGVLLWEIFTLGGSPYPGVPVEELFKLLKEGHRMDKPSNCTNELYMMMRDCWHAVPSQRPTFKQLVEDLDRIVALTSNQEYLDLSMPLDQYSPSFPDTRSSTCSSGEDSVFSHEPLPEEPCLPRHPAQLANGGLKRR
EPHB2, sequence (P29323 whole entry, looked up): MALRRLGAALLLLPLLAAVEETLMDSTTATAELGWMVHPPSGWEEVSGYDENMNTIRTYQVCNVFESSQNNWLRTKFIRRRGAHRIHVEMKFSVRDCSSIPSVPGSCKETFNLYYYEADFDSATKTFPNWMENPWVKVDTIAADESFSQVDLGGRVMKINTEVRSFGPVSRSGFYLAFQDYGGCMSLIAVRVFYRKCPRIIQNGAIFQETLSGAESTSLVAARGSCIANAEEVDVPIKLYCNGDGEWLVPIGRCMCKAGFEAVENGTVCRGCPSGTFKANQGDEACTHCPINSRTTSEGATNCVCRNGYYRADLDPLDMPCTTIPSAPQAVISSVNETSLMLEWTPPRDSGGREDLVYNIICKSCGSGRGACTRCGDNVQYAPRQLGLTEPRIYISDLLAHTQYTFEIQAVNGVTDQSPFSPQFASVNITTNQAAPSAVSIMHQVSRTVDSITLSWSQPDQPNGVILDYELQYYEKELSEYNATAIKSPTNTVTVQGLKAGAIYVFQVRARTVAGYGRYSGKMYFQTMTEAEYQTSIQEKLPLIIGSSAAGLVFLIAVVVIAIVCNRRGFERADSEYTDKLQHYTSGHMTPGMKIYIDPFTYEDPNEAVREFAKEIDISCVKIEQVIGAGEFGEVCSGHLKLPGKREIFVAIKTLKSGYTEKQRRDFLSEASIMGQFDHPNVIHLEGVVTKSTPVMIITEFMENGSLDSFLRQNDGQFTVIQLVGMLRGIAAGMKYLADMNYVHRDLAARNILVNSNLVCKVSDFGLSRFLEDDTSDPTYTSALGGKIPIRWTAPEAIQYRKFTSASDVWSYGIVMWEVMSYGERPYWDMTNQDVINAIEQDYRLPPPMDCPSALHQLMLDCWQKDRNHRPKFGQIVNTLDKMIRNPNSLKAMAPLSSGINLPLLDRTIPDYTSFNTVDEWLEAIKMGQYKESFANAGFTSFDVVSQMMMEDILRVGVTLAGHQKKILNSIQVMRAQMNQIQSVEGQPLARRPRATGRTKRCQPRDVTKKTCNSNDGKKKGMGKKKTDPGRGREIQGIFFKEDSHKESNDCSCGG
EPHB1, sequence (P54762 whole entry, looked up, the tested form may be a part): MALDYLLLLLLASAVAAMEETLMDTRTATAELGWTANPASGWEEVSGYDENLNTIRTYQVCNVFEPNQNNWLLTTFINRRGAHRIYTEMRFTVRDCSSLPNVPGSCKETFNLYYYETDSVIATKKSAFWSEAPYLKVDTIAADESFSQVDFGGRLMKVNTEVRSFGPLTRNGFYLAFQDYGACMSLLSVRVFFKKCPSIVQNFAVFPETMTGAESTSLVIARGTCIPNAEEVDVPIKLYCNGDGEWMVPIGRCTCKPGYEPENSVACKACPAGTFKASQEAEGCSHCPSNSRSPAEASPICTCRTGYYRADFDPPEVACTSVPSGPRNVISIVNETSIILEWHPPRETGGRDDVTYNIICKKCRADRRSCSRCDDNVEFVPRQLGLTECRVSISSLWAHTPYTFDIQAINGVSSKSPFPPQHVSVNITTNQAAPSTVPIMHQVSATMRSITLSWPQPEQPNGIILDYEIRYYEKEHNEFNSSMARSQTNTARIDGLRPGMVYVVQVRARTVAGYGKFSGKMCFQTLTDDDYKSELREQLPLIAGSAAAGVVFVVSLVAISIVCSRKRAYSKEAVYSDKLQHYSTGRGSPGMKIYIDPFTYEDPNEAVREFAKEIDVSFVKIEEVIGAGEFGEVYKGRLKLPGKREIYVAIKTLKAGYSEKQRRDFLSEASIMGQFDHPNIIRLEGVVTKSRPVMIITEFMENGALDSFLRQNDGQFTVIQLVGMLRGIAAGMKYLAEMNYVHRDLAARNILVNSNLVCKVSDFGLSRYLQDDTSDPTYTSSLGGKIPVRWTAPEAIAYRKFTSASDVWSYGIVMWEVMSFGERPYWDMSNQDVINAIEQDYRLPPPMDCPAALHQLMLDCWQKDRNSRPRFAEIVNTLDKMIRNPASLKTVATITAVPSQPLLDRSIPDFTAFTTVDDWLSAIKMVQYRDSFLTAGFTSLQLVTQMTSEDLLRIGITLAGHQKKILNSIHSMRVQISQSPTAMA
FGFR3, sequence (P22607 whole entry, looked up): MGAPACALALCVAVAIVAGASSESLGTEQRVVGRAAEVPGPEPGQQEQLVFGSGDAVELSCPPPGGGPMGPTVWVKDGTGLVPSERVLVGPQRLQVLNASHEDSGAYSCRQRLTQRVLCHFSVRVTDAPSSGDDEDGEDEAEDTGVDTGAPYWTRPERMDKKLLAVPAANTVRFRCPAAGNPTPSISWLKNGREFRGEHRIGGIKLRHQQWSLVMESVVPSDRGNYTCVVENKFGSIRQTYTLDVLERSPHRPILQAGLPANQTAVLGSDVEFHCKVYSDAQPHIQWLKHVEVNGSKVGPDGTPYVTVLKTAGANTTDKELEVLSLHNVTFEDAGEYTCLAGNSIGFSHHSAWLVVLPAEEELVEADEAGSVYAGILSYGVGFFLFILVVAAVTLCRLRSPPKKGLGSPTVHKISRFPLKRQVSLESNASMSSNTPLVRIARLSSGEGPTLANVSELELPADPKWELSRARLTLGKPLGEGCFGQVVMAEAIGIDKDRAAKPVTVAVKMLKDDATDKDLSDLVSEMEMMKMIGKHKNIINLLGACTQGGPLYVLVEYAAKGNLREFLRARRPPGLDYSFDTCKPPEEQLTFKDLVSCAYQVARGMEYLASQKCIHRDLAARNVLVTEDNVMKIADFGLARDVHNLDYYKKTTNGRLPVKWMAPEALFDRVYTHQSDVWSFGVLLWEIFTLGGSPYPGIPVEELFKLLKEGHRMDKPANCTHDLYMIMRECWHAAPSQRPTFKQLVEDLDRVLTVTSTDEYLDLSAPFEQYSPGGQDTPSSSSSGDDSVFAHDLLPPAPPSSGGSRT

Row | SH2 binding enrichment [1] | SH2 binding enrichment [2] | SH2 binding enrichment [3] | Sequence | phosphorylation enrichment [4] | phosphorylation enrichment [5] | phosphorylation enrichment [6] | phosphorylation enrichment [7] | phosphorylation enrichment [8] | phosphorylation enrichment [9] | phosphorylation enrichment [10] | phosphorylation enrichment [11] | phosphorylation enrichment [12] | phosphorylation enrichment [13] | phosphorylation enrichment [14] | phosphorylation enrichment [15] | phosphorylation enrichment [16]
1 | 1.45 | 1.14 | 1.19 | FLAVGYHKPFI [IDS_Y225_H229Y_YF] | 0.701 | 0.381 | 0.39 | 0.8 | 1.29 | 0.416 | 3.35 | 0.38 | 0.435 | 0.456 | 0.428 | 0.647 | 0.359
2 | 1.03 | 1.23 | 1.37 | FLAVGYHKTHI [IDS_Y225_P228T] | 0.784 | 0.429 | 0.4 | 0.946 | 0.971 | 0.484 | 0.638 | 0.477 | 0.447 | 0.469 | 0.441 | 0.649 | 0.548
3 | 0.612 | 1 | 0.954 | FLNSIYKSRDE [ROS1_Y2227] | 0.566 | 0.439 | 0.481 | 0.642 | 0.612 | 0.517 | 0.499 | 0.444 | 0.342 | 0.519 | 0.357 | 0.507 | 0.365
4 | 1.13 | 0.858 | 1.35 | FPCSVYVPDEW [INSR_Y1011] | 1.5 | 0.623 | 1.8 | 1.3 | 1.11 | 0.606 | 1.08 | 0.714 | 0.72 | 0.675 | 0.476 | 0.769 | 0.707
5 | 0.892 | 1.2 | 1.47 | FQQLFYLLQTN [IQGAP2_Y890_YF] | 1.51 | 0.514 | 0.779 | 1.5 | 1.34 | 0.796 | 0.897 | 0.608 | 0.561 | 0.688 | 0.867 | 1.26 | 0.884

Continued, sequence first:

Row | Sequence | SH2 binding enrichment [1] | SH2 binding enrichment [2] | SH2 binding enrichment [3] | phosphorylation enrichment [4] | phosphorylation enrichment [5] | phosphorylation enrichment [6] | phosphorylation enrichment [7] | phosphorylation enrichment [8] | phosphorylation enrichment [9] | phosphorylation enrichment [10] | phosphorylation enrichment [11] | phosphorylation enrichment [12] | phosphorylation enrichment [13] | phosphorylation enrichment [14] | phosphorylation enrichment [15] | phosphorylation enrichment [16]
6 | FKELVYETVRV [FSHB_Y76] | 0.77 | 0.751 | 0.961 | 2.11 | 3.22 | 8.98 | 6.92 | 0.894 | 9.8 | 18 | 11.2 | 18.5 | 12.4 | 9.94 | 1.57 | 10.2
7 | FLGRDYLETLM [DUS3L_Y610_YF] | 0.563 | 0.878 | 0.96 | 0.849 | 0.48 | 0.428 | 0.957 | 0.748 | 0.459 | 0.685 | 0.422 | 0.591 | 0.401 | 0.471 | 0.686 | 0.47
8 | FPDFVYKRIKA [DPYSL2_Y479] | 0.41 | 0.79 | 0.622 | 0.682 | 0.495 | 0.344 | 0.773 | 0.793 | 0.468 | 0.362 | 0.494 | 0.424 | 0.443 | 0.377 | 0.543 | 0.421
